# ± gives the standard error. For some assays here: Fewer inactive variants are shown than the library holds.
# B1: glmS ribozyme (parent)
# chain: AUAAAAGCGCCAGAACUACAGAAAUGUAGUUGACGAGGAGGAGGUUUAUCGAAUUUUCGGCGGAUGCCUCCAAA
# Columns and labels:
# Conditions in all cases: with glucosamine-6-phosphate
# glucosamine-6-phosphate [1] = variants of: B1; assay: kcat; higher = faster cleavage; RNA array
# Method in brief: (§1)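 Barcoded ribozyme variants, transcribed in situ by E. coli RNA polymerase on sequenced MiSeq chips, were followed via a hybridised Cy3 probe at 37 °C. Glucosamine-6-phosphate ranged from 40 μM to 10 mM in HEPES/KCl/Mg(OAc)2 buffer. kobs came from decay fits to per-tile medians, and kcat and KM from weighted Michaelis–Menten fits.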
# glucosamine-6-phosphate [2] = variants of: B1; assay: KM; higher = weaker cofactor use; RNA array
# Method in brief: as §1
# glucosamine-6-phosphate [3] = variants of: B1; assay: self-cleavage kobs at 40 uM GlcN6P; higher = faster cleavage; RNA array
# Method in brief: as §1
# glucosamine-6-phosphate [4] = variants of: B1; assay: self-cleavage kobs at 10000 uM GlcN6P; higher = faster cleavage; RNA array
# Method in brief: as §1
# glucosamine-6-phosphate [5] = variants of: B1; assay: self-cleavage kobs at 160 uM GlcN6P; higher = faster cleavage; RNA array
# Method in brief: as §1
# glucosamine-6-phosphate [6] = variants of: B1; assay: self-cleavage kobs at 640 uM GlcN6P; higher = faster cleavage; RNA array
# Method in brief: as §1
# glucosamine-6-phosphate [7] = variants of: B1; assay: self-cleavage kobs at 2500 uM GlcN6P; higher = faster cleavage; RNA array
# Method in brief: as §1
Variant,kcat (glucosamine-6-phosphate [1]) [s⁻¹],KM (glucosamine-6-phosphate [2]) [µM],self-cleavage kobs at 40 uM GlcN6P (glucosamine-6-phosphate [3]) [s⁻¹],self-cleavage kobs at 10000 uM GlcN6P (glucosamine-6-phosphate [4]) [s⁻¹],self-cleavage kobs at 160 uM GlcN6P (glucosamine-6-phosphate [5]) [s⁻¹],self-cleavage kobs at 640 uM GlcN6P (glucosamine-6-phosphate [6]) [s⁻¹],self-cleavage kobs at 2500 uM GlcN6P (glucosamine-6-phosphate [7]) [s⁻¹]
U46C C58U,3.35e-05 ± 5.4e-07,1400 ± 110,< 1e-05,2.93e-05 ± 9e-06,–,–,–
U54G G60A,2.28e-05 ± 5.4e-06,–,–,–,< 1e-05,–,–
G13A C67A,0.000273 ± 6.7e-05,4490 ± 2100,–,0.000181 ± 2.5e-05,–,2.62e-05 ± 8.7e-06,0.000133 ± 2.4e-05
C11A U30A C50U,2.21e-05 ± 3.2e-06,–,–,–,–,–,–
A6U U55G,0.00137 ± 0.00067,–,–,0.000416 ± 6.4e-05,–,4.48e-05 ± 1e-05,0.000118 ± 1.9e-05
A64U C67G,< 1e-05,–,< 1e-05,–,–,< 1e-05,–
G29U U49G,0.000125 ± 2e-05,5270 ± 1900,–,8.25e-05 ± 1.9e-05,–,–,3.79e-05 ± 1.7e-05
G32C U55C,0.000106 ± 1.3e-05,7360 ± 1900,–,6.12e-05 ± 1.1e-05,< 1e-05,–,2.78e-05 ± 1.4e-05
A15C G29C G37A C61U,< 1e-05,–,–,–,–,–,–
G29C G40C,9.96e-05 ± 4.4e-06,1020 ± 150,–,8.84e-05 ± 1.8e-05,–,3.65e-05 ± 1.5e-05,7.4e-05 ± 1.6e-05
A33U U46C,2.23e-05 ± 3.7e-06,–,–,–,–,–,–
A12G G41U,0.000763 ± 4.6e-05,–,–,0.000377 ± 4.1e-05,–,4.77e-05 ± 1.4e-05,0.000147 ± 2.1e-05
G40A G59U,1.46e-05 ± 2.7e-06,–,< 1e-05,–,< 1e-05,–,–
C16U U30A G40A,0.000118 ± 1.8e-05,1030 ± 380,< 1e-05,–,–,4.8e-05 ± 2e-05,8.29e-05 ± 2.2e-05
A15C U31G,0.00453 ± 0.0018,–,8.5e-05 ± 3.2e-05,0.00376 ± 0.0012,0.000187 ± 5.2e-05,–,0.00159 ± 0.00063
G60U G66C,< 1e-05,–,–,< 1e-05,–,–,–
A14U G29C,1.25e-05 ± 3.3e-06,–,–,–,–,–,–
C11A G66U,< 1e-05,58.7 ± 26,< 1e-05,–,–,< 1e-05,< 1e-05
C16U C67A,0.00194 ± 0.0004,360 ± 110,0.000212 ± 2.2e-05,–,0.0005 ± 6.7e-05,0.00138 ± 0.00017,0.00166 ± 0.0003

Variant,kcat (glucosamine-6-phosphate [1]) [s⁻¹],KM (glucosamine-6-phosphate [2]) [µM],self-cleavage kobs at 40 uM GlcN6P (glucosamine-6-phosphate [3]) [s⁻¹],self-cleavage kobs at 10000 uM GlcN6P (glucosamine-6-phosphate [4]) [s⁻¹],self-cleavage kobs at 160 uM GlcN6P (glucosamine-6-phosphate [5]) [s⁻¹],self-cleavage kobs at 640 uM GlcN6P (glucosamine-6-phosphate [6]) [s⁻¹],self-cleavage kobs at 2500 uM GlcN6P (glucosamine-6-phosphate [7]) [s⁻¹]
C11A U57A,< 1e-05,–,–,–,–,–,–
C16U C67G,0.000799 ± 5.5e-05,1570 ± 190,1.87e-05 ± 6.4e-06,0.000664 ± 5.4e-05,7.2e-05 ± 9.4e-06,0.000229 ± 2.2e-05,0.000566 ± 6.2e-05
C10U G66U,< 1e-05,–,–,< 1e-05,< 1e-05,< 1e-05,–
A15U U65G,0.00187 ± 0.00077,–,3.19e-05 ± 1.1e-05,0.00139 ± 0.00025,6.21e-05 ± 1e-05,0.00036 ± 4.5e-05,0.00056 ± 0.00017
C16U A52G,0.00224 ± 0.00092,–,3.86e-05 ± 9e-06,0.0016 ± 0.00017,9.03e-05 ± 2.1e-05,0.000237 ± 5.8e-05,0.000576 ± 7.9e-05
C34U G43A,< 1e-05,–,< 1e-05,–,< 1e-05,–,–
U49C C70G,1.42e-05 ± 2.5e-06,–,–,< 1e-05,–,–,–
G32A A53G,0.00285 ± 0.00095,1980 ± 950,5.52e-05 ± 9e-06,0.00294 ± 0.00036,0.000222 ± 3.2e-05,0.00114 ± 0.0002,0.00106 ± 0.00021
A64G U69G C71A,2.3e-05 ± 7.7e-06,–,–,–,–,–,–
A64U U69C,5.01e-05 ± 2.7e-06,1050 ± 310,–,4.48e-05 ± 1.3e-05,–,–,–
A42U A52G,1.76e-05 ± 2.4e-06,–,–,1.62e-05 ± 7.9e-06,< 1e-05,–,–
A33G C68A,1.39e-05 ± 1.5e-06,–,–,–,–,–,–
C50A C67G,2.95e-05 ± 1.1e-05,–,1.98e-05 ± 9e-06,–,–,–,4.73e-05 ± 9.8e-06
G29A C67U,0.000866 ± 0.00021,742 ± 320,4.43e-05 ± 8.6e-06,0.00104 ± 0.00017,0.000247 ± 5.1e-05,0.00034 ± 5.8e-05,0.00056 ± 0.00012
U31G C67A,0.00185 ± 0.00043,740 ± 270,0.000107 ± 1.8e-05,0.00286 ± 0.00065,0.000285 ± 6.9e-05,0.000858 ± 0.00013,0.00123 ± 0.00024
A39C U55A,0.00799 ± 0.0028,2790 ± 1400,0.000201 ± 4.2e-05,0.00755 ± 0.0012,0.000429 ± 7.8e-05,0.00143 ± 0.00023,0.00295 ± 0.00058
U30G G41U,0.000172 ± 2.3e-05,440 ± 190,–,0.000154 ± 2.4e-05,3.73e-05 ± 1.4e-05,0.000153 ± 3.3e-05,0.000149 ± 2.6e-05
G44C U47C,1.4e-05 ± 4.3e-06,–,–,–,–,–,–
A14G C58G,0.00036 ± 0.00013,–,–,0.000276 ± 3.5e-05,4.95e-05 ± 1.8e-05,7.22e-05 ± 2.1e-05,0.000115 ± 2.3e-05

# — the supplement of paper PMC7125110
